Here are results for two molecules from PMC8977143, “PDIA3/ERp57 promotes a matrix-rich secretome that stimulates fibroblast adhesion through CCN2” (American Journal of Physiology - Cell Physiology, 2022).

This assay has as its target T1, Native human platelet thrombospondin-1 (human, UniProt P07996 19-1170).
T1 construct: thrombospondin-1 (TSP1), human, native protein from platelets; also called TSP1; native human TSP1; source: bought: Cell Sciences Inc. (Cat. No. CSL19832A), native from human platelets
Kind of assay: ELISA; solid-phase binding: PDIA3/ERp57 or CCN2 coated at various concentrations on Immulon 2Hb wells in TBS with 2 mM CaCl2 and 15 µM ZnSO4, 16 h at 4°C; blocked with 5% BSA; 50 µg/mL (388 µM as printed) native human TSP1 added for 1 h at room temperature; detected with anti-TSP1 (C9) and anti-mouse-IgG-HRP, absorbance at 450 nm. The settings on record: both partners purified. On the technique in general: An ELISA detects its analyte on a solid surface through an enzyme-linked reagent.

T1 sequence (P07996 19-1170): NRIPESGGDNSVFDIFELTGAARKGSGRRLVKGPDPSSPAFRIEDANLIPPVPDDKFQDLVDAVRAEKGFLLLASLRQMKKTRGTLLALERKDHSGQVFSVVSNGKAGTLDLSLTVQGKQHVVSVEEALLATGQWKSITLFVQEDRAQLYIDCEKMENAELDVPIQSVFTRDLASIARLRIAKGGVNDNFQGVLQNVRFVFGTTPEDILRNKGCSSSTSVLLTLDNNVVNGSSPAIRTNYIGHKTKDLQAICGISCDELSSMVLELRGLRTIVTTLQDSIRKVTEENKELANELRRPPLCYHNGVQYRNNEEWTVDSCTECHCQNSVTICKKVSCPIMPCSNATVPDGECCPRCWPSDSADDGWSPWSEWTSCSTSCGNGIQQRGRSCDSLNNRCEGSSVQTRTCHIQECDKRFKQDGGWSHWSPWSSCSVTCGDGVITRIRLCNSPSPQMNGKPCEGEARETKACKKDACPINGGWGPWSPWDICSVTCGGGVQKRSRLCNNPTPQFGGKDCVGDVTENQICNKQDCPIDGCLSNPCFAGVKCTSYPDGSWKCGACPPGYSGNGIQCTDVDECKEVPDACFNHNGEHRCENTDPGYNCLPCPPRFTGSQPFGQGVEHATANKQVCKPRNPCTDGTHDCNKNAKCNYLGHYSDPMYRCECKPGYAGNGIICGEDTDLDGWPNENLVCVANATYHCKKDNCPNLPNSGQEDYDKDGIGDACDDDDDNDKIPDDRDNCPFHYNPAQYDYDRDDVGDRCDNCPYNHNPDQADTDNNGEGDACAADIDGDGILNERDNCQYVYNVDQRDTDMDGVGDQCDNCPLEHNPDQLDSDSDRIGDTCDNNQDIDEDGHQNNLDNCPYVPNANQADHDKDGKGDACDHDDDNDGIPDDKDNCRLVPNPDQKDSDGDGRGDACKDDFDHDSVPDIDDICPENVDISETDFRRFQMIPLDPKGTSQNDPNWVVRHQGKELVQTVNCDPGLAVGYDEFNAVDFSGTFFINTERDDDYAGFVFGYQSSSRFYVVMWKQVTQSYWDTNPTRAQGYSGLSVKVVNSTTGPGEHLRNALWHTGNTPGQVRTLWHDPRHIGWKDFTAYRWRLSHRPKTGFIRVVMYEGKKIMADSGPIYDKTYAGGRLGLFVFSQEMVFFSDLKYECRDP

B1: Recombinant human PDIA3/ERp57 (enzyme, UniProt P30101 25-505, looked up)
chain: SDVLELTDDNFESRISDTGSAGLMLVEFFAPWCGHCKRLAPEYEAAATRLKGIVPLAKVDCTANTNTCNKYGVSGYPTLKIFRDGEEAGAYDGPRTADGIVSHLKKQAGPASVPLRTEEEFKKFISDKDASIVGFFDDSFSEAHSEFLKAASNLRDNYRFAHTNVESLVNEYDDNGEGIILFRPSHLTNKFEDKTVAYTEQKMTSGKIKKFIQENIFGICPHMTEDNKDLIQGKDLLIAYYDVDYEKNAKGSNYWRNRVMMVAKKFLDAGHKLNFAVASRKTFSHELSDFGLESTAGEIPVVAIRTAKGEKFVMQEEFSRDGKALERFLQDYFDGNLKRYLKSEPIPESNDGPVKVVVAENFDEIVNNENKDVLIEFYAPWCGHCKNLEPKYKELGEKLSKDPNIVIAKMDATANDVPSPYEVRGFPTIYFSPANKKLNPKKYEGGRELSDFISYLQREATNPPVIQEEKPKKKKKAQEDL
notes: protein disulfide isomerase A3 (PDIA3/ERp57), human, recombinant; Limits, host and tags are told only by the supplier's data sheet; source: bought: Abcam (Cat. No. ab92937)
On to B1, for which the binding result is “binds”.

B2: Recombinant human CCN2 (natural protein, UniProt P29279 27-349, looked up)
chain: QNCSGPCRCPDEPAPRCPAGVSLVLDGCGCCRVCAKQLGELCTERDPCDPHKGLFCHFGSPANRKIGVCTAKDGAPCIFGGTVYRSGESFQSSCKYQCTCLDGAVGCMPLCSMDVRLPSPDCPFPRRVKLPGKCCEEWVCDEPKDQTVVGPALAAYRLEDTFGPDPTMIRANCLVQTTEWSACSKTCGMGISTRVTNDNASCRLEKQSRLCMVRPCEADLEENIKKGKKCIRTPKISKPIKFELSGCTSMKTYRAKFCGVCTDGRCCTPHRTTTLPVEFKCPDGEVMKKNMMFIKTCACHYNCPGDNDIFESLYYRKMYGDMA
notes: cell communication network 2 (CCN2/CTGF), human, recombinant; Limits, host and tags are told only by the supplier's data sheet; also called cell communication network 2; CTGF; source: bought: R&D (Cat. No. 9190-CC-050)
For B2, the binding result is given as “binds”.
